Source: US20240018240A1 (Hoffmann-La Roche, published 2024)
Where a chain is given by its changes, count along the chain named. Names may count otherwise.

B1: TYRP1 T-cell bispecific antibody (TCB) comprising anti-CD3 antibody P035.093 (bispecific antibody, human IgG1, kappa, L234A L235A)
heavy 1: not shown
heavy 2: QVQLVQSGAEVKKPGASVKVSCKASGFNIKDYFLHWVRQAPGQGLEWMGWINPDNGNTVYAQKFQGRVTMTADTSTSTVYMELSSLRSEDTAVYYCTRRDYTYEKAALDYWGQGTLVTVSSASTKGPSVFPLAPSSKSTSGGTAALGCLVEDYFPEPVTVSWNSGALTSGVHTFPAVLQSSGLYSLSSVVTVPSSSLGTQTYICNVNHKPSNTKVDEKVEPKSCDKTHTCPPCPAPEAAGGPSVFLFPPKPKDTLMISRTPEVTCVVVDVSHEDPEVKFNWYVDGVEVHNAKTKPREEQYNSTYRVVSVLTVLHQDWLNGKEYKCKVSNKALGAPIEKTISKAKGQPREPQVCTLPPSRDELTKNQVSLSCAVKGFYPSDIAVEWESNGQPENNYKTTPPVLDSDGSFFLVSKLTVDKSRWQQGNVFSCSVMHEALHNHYTQKSLSLSP
light 1: DIQMTQSPSSLSASVGDRVTITCRASGNIYNYLAWYQQKPGKVPKLLIYDAKTLADGVPSRFSGSGSGTDFTLTISSLQPEDVATYYCQHFWSLPFTFGQGTKLEIKRTVAAPSVFIFPPSDRKLKSGTASVVCLLNNFYPREAKVQWKVDNALQSGNSQESVTEQDSKDSTYSLSSTLTLSKADYEKHKVYACEVTHQGLSSPVTKSFNRGEC
light 2: EVQLLESGGGLVQPGGSLRLSCAASGFTFSSYAMNWVRQAPGKGLEWVSRIRSKYNNYATYYADSVKGRFTISRDDSKNTLYLQMNSLRAEDTAVYYCVRASNFPASYVSYFAYWGQGTLVTVSSASVAAPSVFIFPPSDEQLKSGTASVVCLLNNFYPREAKVQWKVDNALQSGNSQESVTEQDSKDSTYSLSSTLTLSKADYEKHKVYACEVTHQGLSSPVTKSFNRGEC
notes: 2+1 IgG CrossFab, inverted, with charge modifications; human IgG1 Fc with knob-into-hole and P329G LALA; also called P035.093 (in TCB format); TYRP1 TCB P035.093
B2: anti-CD3 antibody P035.093 in monovalent human IgG1 format (antibody)
heavy: not shown
chain: DKTHTCPPCPAPEAAGGPSVFLFPPKPKDTLMISRTPEVTCVVVDVSHEDPEVKFNWYVDGVEVHNAKTKPREEQYNSTYRVVSVLTVLHQDWLNGKEYKCKVSNKALGAPIEKTISKAKGQPREPQVCTLPPSRDELTKNQVSLSCAVKGFYPSDIAVEWESNGQPENNYKTTPPVLDSDGSFFLVSKLTVDKSRWQQGNVFSCSVMHEALHNHYTQKSLSLSP
light: B1 light 2
notes: also called P035.093 (in monovalent IgG format)
B3: anti-CD3 antibody CD3orig in monovalent human IgG1 format (antibody)
heavy: not shown
chain: B2 chain
light: B1 light 2 with S31T, A101H, S102G, P105G, A106N, Y111W
notes: also called CD3orig (in monovalent IgG format)
B4: TYRP1 T-cell bispecific antibody (TCB) comprising anti-CD3 antibody CD3orig (bispecific antibody, human IgG1, kappa, L234A L235A)
heavy 1: not shown
heavy 2: B1 heavy 2
light 1: B1 light 1
light 2: B1 light 2 with S31T, A101H, S102G, P105G, A106N, Y111W
notes: 2+1 IgG CrossFab, inverted, with charge modifications; human IgG1 Fc with knob-into-hole and P329G LALA; also called CD3orig (in TCB format)
B5: TYRP1 T-cell bispecific antibody (TCB) comprising anti-CD3 antibody CD3opt (bispecific antibody, human IgG1, kappa, L234A L235A)
heavy 1: not shown
heavy 2: B1 heavy 2
light 1: B1 light 1
light 2: B1 light 2 with T28Q, A101H, S102T, N103T, A106S, F112Y, A113G
notes: 2+1 IgG CrossFab, inverted, with charge modifications; human IgG1 Fc with knob-into-hole and P329G LALA; also called CD3opt (in TCB format)

Assays:
[1] = biological target: T1, Human CD3ε stalk-Fc(knob)-Avi/CD3δ stalk-Fc(hole) (human); assay: SPR (Biacore T200, 25°C), TCB format, same conditions
T1 construct: Heterodimer of CD3 delta and CD3 epsilon ectodomains fused to a human Fc domain with knob-into-hole modifications and C-terminal Avi-tag; also called human CD3ε/δ; CD3ε/δ
Text: (§1) For affinity measurements, TCB molecules were captured on a C1 sensorchip (GE Healthcare) surface with immobilized anti-Fc (P329G) IgG (an antibody that specifically binds human IgG₁ Fc (P329G); “anti-PG antibody”—see WO 2017/072210, incorporated herein by reference). The experimental setup is schematically depicted in FIG. 3. Capture IgG was coupled to the sensorchip surface by direct immobilization of around 400 resonance units (RU) using the standard amine coupling kit (GE Healthcare Life Sciences).
(§2) To analyze the interaction to CD3, TCB molecules were captured for 80 s at 25 nM with a flow rate of 10 μl/min. Human and cynomolgus CD3ε stalk-Fc(knob)-Avi/CD3δ stalk-Fc(hole) (CD3ε/δ, see SEQ ID NOs 24 and 25 (human) and SEQ ID NOs 26 and 27 (cynomolgus)) were passed at a concentration of 0.122-125 nM with a flow rate of 30 μl/min through the flow cells for 300 s. The dissociation was monitored for 800 s.
(§3) Kinetic constants were derived using the Biacore T200 Evaluation Software (GE Healthcare Life Sciences), to fit rate equations for 1:1 Langmuir binding by numerical integration. The half-life (t_{1/2}) of the interaction was calculated using the formula t_{1/2}=ln 2/koff.

[2] = biological target: T2, Cynomolgus CD3ε stalk-Fc(knob)-Avi/CD3δ stalk-Fc(hole) (cynomolgus); assay: SPR (Biacore T200, 25°C); TCB captured by anti-PG antibody on C1 chip, CD3ε/δ-Fc as analyte; 1:1 Langmuir fit
T2 construct: Heterodimeric Fc fusion, soluble analyte in SPR; also called cynomolgus CD3ε/δ
Text: as §1, §2, §3

[3] = biological target: T1, Human CD3ε stalk-Fc(knob)-Avi/CD3δ …; assay: as above
Text: as §1, §2, §3

[4] = biological target: T1, Human CD3ε stalk-Fc(knob)-Avi/CD3δ …; assay: SPR (Biacore T200, 25°C), TCB format, monovalent binding
Text: as §1, §2, §3

[5] = biological target: T1, Human CD3ε stalk-Fc(knob)-Avi/CD3δ …; assay: SPR (Biacore T200); biotinylated human CD3ε/δ on SA chip, TCB injected at 2 µg/ml; normalised to anti-huIgG capture, relative to the non-stressed sample
Procedure: In order to assess the effect of the deamidation site removal and its effect on the stability of the antibodies, the anti-CD3 antibodies (in TCB format) were incubated for 14 days at 37° C., pH 7.4 and at 40° C., pH 6 and further analyzed by SPR for their binding capability to human CD3ε/δ. Samples stored at −80° C. pH 6 were used as reference. The reference samples and the samples stressed at 40° C. were in 20 mM His, 140 mM NaCl, pH 6.0, and the samples stressed at 37° C. in PBS, pH 7.4, all at a concentration of 1.0 mg/ml. After the stress period (14 days) samples in PBS were dialyzed back to 20 mM His, 140 mM NaCl, pH 6.0 for further analysis.
All SPR experiments were performed on a Biacore T200 instrument (GE Healthcare) at 25° C. with HBS-P+(10 mM HEPES, 150 mM NaCl pH 7.4, 0.05% Surfactant P20) as running and dilution buffer. Biotinylated human CD3ε/δ (see Example 3, SEQ ID NOs 24 and 25) as well as biotinylated anti-huIgG (Capture Select, Thermo Scientific, #7103262100) were immobilized on a Series S Sensor Chip SA (GE Healthcare, #29104992), resulting in surface densities of at least 1000 resonance units (RU). Anti-CD3 antibodies with a concentration of 2 μg/ml were injected for 30 s at a flow rate of 5 μl/min, and dissociation was monitored for 120 s. The surface was regenerated by injecting 10 mM glycine pH 1.5 for 60 s. Bulk refractive index differences were corrected by subtracting blank injections and by subtracting the response obtained from a blank control flow cell. For evaluation, the binding response 5 seconds after injection end was taken. To normalize the binding signal, the CD3 binding was divided by the anti-huIgG response (the signal (RU) obtained upon capture of the CD3 antibody on the immobilized anti-huIgG antibody). The relative binding activity was calculated by referencing each temperature stressed sample to the corresponding, non-stressed sample.

[6] = biological target: T2, Cynomolgus CD3ε stalk-Fc(knob)-Avi/CD3δ …; assay: SPR (Biacore T200, 25°C); TCB captured by anti-PG antibody on C1 chip, CD3ε/δ-Fc as analyte; t1/2 = ln 2/koff
Text: as §1, §2, §3

[7] = biological target: T1, Human CD3ε stalk-Fc(knob)-Avi/CD3δ …; assay: as above
Text: as §1, §2, §3

[8] = biological target: T1, Human CD3ε stalk-Fc(knob)-Avi/CD3δ …; assay: SPR (Biacore T200, 25°C), monovalent IgG format, same conditions
Procedure: (§4) SPR experiments were performed as described in Example 3, with the monovalent IgG molecules prepared in Example 6.
(§5) To analyze the interaction to CD3, IgG molecules were captured for 240 s at 50 nM with a flow rate of 5 μl/min. Human and cynomolgus CD3ε stalk-Fc(knob)-Avi/CD3δ-stalk-Fc(hole) were passed at a concentration of 0.061-250 nM with a flow rate of 30 μl/min through the flow cells for 300 s. The dissociation was monitored for 800 s.

[9] = biological target: T2, Cynomolgus CD3ε stalk-Fc(knob)-Avi/CD3δ …; assay: SPR (Biacore T200, 25°C); monovalent IgG captured by anti-PG antibody on C1 chip, CD3ε/δ-Fc as analyte; 1:1 Langmuir fit; triplicates
Procedure: as §3, §4, §5

[10] = biological target: T1, Human CD3ε stalk-Fc(knob)-Avi/CD3δ …; assay: as above
Procedure: as §3, §4, §5

[11] = biological target: T2, Cynomolgus CD3ε stalk-Fc(knob)-Avi/CD3δ …; assay: SPR (Biacore T200, 25°C); monovalent IgG captured by anti-PG antibody on C1 chip, CD3ε/δ-Fc as analyte; t1/2 = ln 2/koff
Procedure: as §3, §4, §5

[12] = biological target: T1, Human CD3ε stalk-Fc(knob)-Avi/CD3δ …; assay: as above
Procedure: as §3, §4, §5

Row | Binder | Kd [2] [nM] | koff [2] [s⁻¹] | kon [2] [M⁻¹ s⁻¹] | Kd [3] [nM] | koff [3] [s⁻¹] | kon [3] [M⁻¹ s⁻¹] | binding activity [%], 2 weeks at pH 6.0/40°C [5] [%] | binding activity [%], 2 weeks at pH 7.4/37°C [5] [%] | t1/2 [6] [min] | t1/2 [7] [min] | Kd [10] [nM] | koff [10] [s⁻¹] | kon [10] [M⁻¹ s⁻¹] | t1/2 [12] [min] | further results
1 | B1 | 0.21 | 0.00104 | 4.89e+06 | 0.41 | 0.00153 | 3.75e+06 | 97 | 95 | 11.1 | 7.55 | – | – | – | – | fold increase of affinity compared to CD3orig and CD3opt [1]: ≤ 10 fold; fold higher binding half-life than CD3orig and CD3opt [4]: ≤ 4 fold
2 | B2 | – | – | – | – | – | – | – | – | – | – | 0.456 | 0.0014 | 3.08e+06 | 8.25 | fold increase of affinity compared to CD3orig [8]: ≤ 10 fold; Kd [9]: 0.224 nM; koff [9]: 0.000981 s⁻¹; kon [9]: 4.38e+06 M⁻¹ s⁻¹; t1/2 [11]: 11.8 min
3 | B3 | – | – | – | – | – | – | – | – | – | – | 4.94 | 0.0029 | 587000 | 3.98 | –
4 | B4 | – | – | – | 6.54 | 0.00338 | 517000 | 95 | 65 | – | 3.42 | – | – | – | – | –
5 | B5 | 0.86 | 0.0023 | 2.67e+06 | 4.3 | 0.00621 | 1.44e+06 | 97 | 92 | 5.02 | 1.86 | – | – | – | – | –
